Experimental findings from US20110053865A1 are described below.

Read-outs that look alike come from different tables or passages of the source.

The term IC50 denotes the point on the concentration scale where inhibition reaches its midpoint.

The target in assay [1] is recombinant human IL-23 (p19/p40) (human) (UniProt Q9NPF7). Kind of assay: cell-based or functional assay.
Assay [2] concerns the target cynomolgus IL-23 (cynomolgus). Kind of assay: cell-based or functional assay.
Assay [3] has as its target native human IL-23 (supernatant of SAC-stimulated THP-1 cells) (human) (UniProt Q9NPF7). The assay can be described thus: cell-based or functional assay.
The target of assay [4] is recombinant human IL-23 (p19/p40) (human) (UniProt Q9NPF7). Kind of assay: inhibition ELISA, hIL-23/hIL-23R-Fc. (ELISA stands for enzyme-linked immunosorbent assay.)
Assay [5] shares this target. Kind of assay: cell-based or functional assay. The source holds these as a separate data set.
Assay [6] concerns the target cynomolgus IL-23 (cynomolgus). Kind of assay: cell-based or functional assay. The source holds these as a separate data set.

recombinant human IL-23 (p19/p40) (human), sequence (Q9NPF7 20-189 limits assumed, chain 1 of 2): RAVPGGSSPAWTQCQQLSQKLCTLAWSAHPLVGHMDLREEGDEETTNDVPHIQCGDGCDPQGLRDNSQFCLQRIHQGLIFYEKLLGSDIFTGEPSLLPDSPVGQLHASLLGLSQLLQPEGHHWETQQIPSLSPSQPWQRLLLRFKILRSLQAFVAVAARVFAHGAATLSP
recombinant human IL-23 (p19/p40) (human), sequence (P29460 23-328 limits assumed, chain 2 of 2, further chain): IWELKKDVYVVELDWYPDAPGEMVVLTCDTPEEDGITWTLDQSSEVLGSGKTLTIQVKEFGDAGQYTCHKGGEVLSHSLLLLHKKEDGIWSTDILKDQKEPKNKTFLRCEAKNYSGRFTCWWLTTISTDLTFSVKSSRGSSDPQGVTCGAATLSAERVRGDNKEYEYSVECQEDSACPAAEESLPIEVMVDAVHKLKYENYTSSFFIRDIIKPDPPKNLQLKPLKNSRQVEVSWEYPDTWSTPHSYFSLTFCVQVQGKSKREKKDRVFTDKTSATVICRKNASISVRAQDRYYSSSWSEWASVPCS
native human IL-23 (supernatant of SAC-stimulated THP-1 cells) (human), sequence (Q9NPF7 20-189, chain 1 of 2): as the sequence (Q9NPF7 20-189 limits assumed, chain 1 of 2) above
native human IL-23 (supernatant of SAC-stimulated THP-1 cells) (human), sequence (P29460 23-328, chain 2 of 2, further chain): as the sequence (P29460 23-328 limits assumed, chain 2 of 2, further chain) above

B1: P23IL119A3-9GS-ALB1-9GS-81A12 (bispecific antibody, part only; not given: anti-albumin Nanobody, part only)
chain, part: EVQLVESGGGLVQAGGSLRLSCAASGRIFSLPASGNIFNLLTIAWHRQAPGMQRELVATINSGSRTNYADSVKGRFTISRDNAQKTVYLQMNNLKPEDTAVYYCQTSGSGSPNFWGQGTQVTVSSGGGGSGGGSGGGGSGGGSEVQLVESGGGLVQAGGSLRLSCAASGRTLSSYAMGWFRQAPGKEREFVARISQGGTAIYYADSVKGRFTISRDNAKNTVYLQMNSLKPEDTAVYYCAKDPSPYYRGSAYLLSGSYDSWGQGTQVTVSS
With B1, in assay [1], the IC50, splenocyte assay, 19 pM hIL-23 turned out to be 2.5 pM. The molecule also yielded an IC50, splenocyte assay, 3.8 pM cIL-23 in assay [2] of 3.3 pM.

B2: P23IL-121A2-9GS-ALB1-9GS-119G7 (bispecific antibody, part only; not given: anti-albumin Nanobody, part only)
chain, part: EVQLVESGGGLVQAGGSLRLSCAASGSIFNFNYMGWFRQAPGKEREFVAAIRWSGSSTYYADSVKGRFTISRDDAKNTVALQMNSLKPEDTAIYYCALRKGIPYSTSDRVIKGVNDYDYWGQGTQVTVSSGGGGSGGGSGGGGSGGGSEVQLVESGGGLVQAGGSLTLSCAVSGLTFNNYAMGWFRQVPGKEREFVAAISRSGLRTFYSDSVKGRFTISRDSAKSTVYVQMNNLKPEDTAVYFCAADRRTYYSEGPSLTDTLRYDYWGQGTQVTVSS
As to B2, the IC50, splenocyte assay, 19 pM hIL-23 in assay [1] came to 39 pM.

B3: P23IL20B11-9GS-ALB1-9GS-37D5 (bispecific antibody, part only; not given: anti-albumin Nanobody, part only)
chain, part: EVQLVESGGGLVQAGGSLRLSCAVSGDTFSVYGMGWFRQAPGMEREFVAGISWNAGITAYTDTLKGRFTISRDRAKNTMYLQMNSLQPEDTAVYYCAADVTRHYIATRSKVDASMYDYWGQGTQVTVSSGGGGSGGGSGGGGSGGGSEVQLVESGGGLVQPGGSLRLSCAASGFTLDYLAIGWFRQAPGKEREGVSCVSSSGQYTYYADSVKGRFTISRDNAESTVYLQMNSLKPEDTAVYYCATDPECYRVRGYYNGEYDYWGQGTQVTVSS
B3: the IC50, splenocyte assay, 19 pM hIL-23 in assay [1] was 4.47 pM. Also, in assay [2], the IC50, splenocyte assay, 3.8 pM cIL-23 is 8.59 pM.

B4: P23IL-121A2-9GS-ALB1-9GS-81G2 (bispecific antibody, part only; not given: anti-albumin Nanobody, part only)
chain, part: EVQLVESGGGLVQAGGSLRLSCAASGSIFNFNYMGWFRQAPGKEREFVAAIRWSGSSTYYADSVKGRFTISRDDAKNTVALQMNSLKPEDTAIYYCALRKGIPYSTSDRVIKGVNDYDYWGQGTQVTVSSGGGGSGGGSGGGGSGGGSEVQLVESGGGLVQPGGSLRLSCIASGLPFSTKSMGWFRQAPGKEREFVARISPGGTSRYYGDFVKGRFAISRDNAKNTTWLQMNSLKAEDTAVYYCASGERSTYIGSNYYRTNEYDYWGTGTQVTVSS
As to B4, in assay [1], the IC50, splenocyte assay, 19 pM hIL-23 worked out at 8 pM.

B5: P23IL37D5-9GS-ALB1 (bispecific antibody, part only; not given: anti-albumin Nanobody, part only)
chain, part: EVQLVESGGGLVQPGGSLRLSCAASGFTLDYLAIGWFRQAPGKEREGVSCVSSSGQYTYYADSVKGRFTISRDNAESTVYLQMNSLKPEDTAVYYCATDPECYRVRGYYNGEYDYWGQGTQVTVSSGGGGSGGGS
With B5, the IC50, splenocyte assay, 19 pM hIL-23 in assay [1] turned out to be 29.8 pM. For the same molecule, the IC50, splenocyte assay, 19 pM native hIL-23 (Expt 3) in assay [3] was 60 pM. The molecule also yielded an IC50, splenocyte assay, 3.8 pM cIL-23 in assay [2] of 419 pM. Besides, the IC50 in assay [4] is 0.037 nM.

B6: P23IL119A3-9GS-ALB1-9GS-81G2 (bispecific antibody, part only; not given: anti-albumin Nanobody, part only)
chain, part: EVQLVESGGGLVQAGGSLRLSCAASGRIFSLPASGNIFNLLTIAWHRQAPGMQRELVATINSGSRTNYADSVKGRFTISRDNAQKTVYLQMNNLKPEDTAVYYCQTSGSGSPNFWGQGTQVTVSSGGGGSGGGSGGGGSGGGSEVQLVESGGGLVQPGGSLRLSCIASGLPFSTKSMGWFRQAPGKEREFVARISPGGTSRYYGDFVKGRFAISRDNAKNTTWLQMNSLKAEDTAVYYCASGERSTYIGSNYYRTNEYDYWGTGTQVTVSS
Take B6: the IC50, splenocyte assay, 19 pM hIL-23 in assay [1] came out at 4 pM. This molecule also came in with an IC50, splenocyte assay, 3.8 pM cIL-23 in assay [2] of 3 pM.

B7: P23IL37D5-15GS-ALB1-15GS-20B11 (bispecific antibody, part only; not given: anti-albumin Nanobody and linkers, not shown: small tags and cut ends)
chain, part: EVQLVESGGGLVQPGGSLRLSCAASGFTLDYLAIGWFRQAPGKEREGVSCVSSSGQYTYYADSVKGRFTISRDNAESTVYLQMNSLKPEDTAVYYCATDPECYRVRGYYNGEYDYWGQGTQVTVSSEVQLVESGGGLVQAGGSLRLSCAVSGDTFSVYGMGWFRQAPGMEREFVAGISWNAGITAYTDTLKGRFTISRDRAKNTMYLQMNSLQPEDTAVYYCAADVTRHYIATRSKVDASMYDYWGQGTQVTVSS
In the case of B7, in assay [1], the IC50, splenocyte assay, 19 pM hIL-23 was 5.77 pM. Besides, the IC50, splenocyte assay, 3.8 pM cIL-23 in assay [2] is 5.75 pM.

B8: P23IL37D5-9GS-ALB1-9GS-20B11 (bispecific antibody, part only; not given: anti-albumin Nanobody, part only)
chain, part: EVQLVESGGGLVQPGGSLRLSCAASGFTLDYLAIGWFRQAPGKEREGVSCVSSSGQYTYYADSVKGRFTISRDNAESTVYLQMNSLKPEDTAVYYCATDPECYRVRGYYNGEYDYWGQGTQVTVSSGGGGSGGGSGGGGSGGGSEVQLVESGGGLVQAGGSLRLSCAVSGDTFSVYGMGWFRQAPGMEREFVAGISWNAGITAYTDTLKGRFTISRDRAKNTMYLQMNSLQPEDTAVYYCAADVTRHYIATRSKVDASMYDYWGQGTQVTVSS
On to B8, for which the IC50, BAF3 proliferation assay, 76 pM hIL-23 in assay [1] came to 19.5 pM. In assay [3], this molecule registered an IC50, splenocyte assay, 19 pM native hIL-23 (Expt 3) of 12 pM.

B9: P23IL119A3V16-9GS-ALB8-9GS-81A12V4 (bispecific antibody, part only; not given: anti-albumin Nanobody, part only)
chain, part: EVQLLESGGGLVQPGGSLRLSCAASGRIFSLPASGNIFNLLTIAWYRQAPGKGRELVATINSGSRTYYADSVKGRFTISRDNSKKTLYLQMNSLRPEDTAVYYCQTSGSGSPNFWGQGTLVTVSSGGGGSGGGSGGGGSGGGSEVQLLESGGGLVQPGGSLRLSCAASGRTLSSYAMGWFRQAPGKGREFVSRISQGGTAIYYADSVKGRFTISRDNSKNTLYLQMNSLRPEDTAVYYCAKDPSPYYRGSAYLLSGSYDSWGQGTLVTVSS
As for B9, the IC50, BA/F3 proliferation assay, 76 pM hIL-23 in assay [1] is 49 pM. The results for the IC50, splenocyte assay, 19 pM hIL-23 in assay [1] and in assay [5] were 4.6 pM and 3.6 pM, respectively. In addition, the IC50, splenocyte assay, 3.8 pM cIL-23 in assay [2] came out at 6.7 pM; in assay [6], 5.4 pM. Also, the half-maximal inhibitory concentration (IC50) in assay [4] was 0.023 nM.
